B1: mRNA-splicing (parent)
chain: AGUUGCUGCUGGGAGCUCCAGCACAGUGAAAUGGACAGAAGGGCAGAGCAA

Variants of: B1
Assay: exon inclusion enrichment index; higher = more inclusion; WT1 exon 5 minigene, HEK293

Going from AGUUCACACAGGGAGCUCCAGCACAGUGAUCUGGACAGAAGGGCAGAGCAA to AGUUCACACAGGGAGCUCCAGCACAGUGAUGUGGACAGAAGGGCAGAGCAA, the “exon inclusion enrichment index” value falls from 0.143 to 0.105.

First: AGUUCACACAGGGAGCUCCAGCACAGUGAUUUGGACAGAAGGGCAGAGCAA
Second: AGUUCACACAGGGAGCUCCAGCACAGUGAAAUGGACAGACAGGCAGAGCAA
The “exon inclusion enrichment index” value of the first is higher: 0.0758 for the first, 0.0281 for the second.

Compared with AGUUCACACAGGGAGCUCCAGCACAGUGAAAUGGACAGACUGGCAGAGCAA, AGUUCACACAGGGAGCUCCAGCACAGUGAAAUGGACAGACCGGCAGAGCAA is higher in “exon inclusion enrichment index” value: 0.0519 for the first, 0.71 for the second.

Going from AGUUCACACAGGGAGCUCCAGCACAGUGAAAUGGACAGAGUGGCAGAGCAA to AGUUCACACAGGGAGCUCCAGCACAGUGAAAUGGACAGAGCGGCAGAGCAA, the “exon inclusion enrichment index” value rises from 0.0884 to 0.666.

Going from AGUUCACACAGGGAGCUCCAGCACAGUGAAAUGGACAGAGAGGCAGAGCAA to AGUUCACACAGGGAGCUCCAGCACAGUGCAAUGGACAGAAGGGCAGAGCAA, the “exon inclusion enrichment index” value rises from 0.0264 to 0.0911.

Going from AGUUCACACAGGGAGCUCCAGCACAGUGUAAUGGACAGAAGGGCAGAGCAA to AGUUCACACAGGGAGCUCCAGCACAGUGGAAUGGACAGAAGGGCAGAGCAA, the “exon inclusion enrichment index” value rises from 0.035 to 0.202.

First: AGUUCACACAGGGAGCUCCAGCACAGUGACCUGGACAGAAGGGCAGAGCAA
Second: AGUUCACACAGGGAGCUCCAGCACAGUGACGUGGACAGAAGGGCAGAGCAA
The “exon inclusion enrichment index” value of the first is lower: 0.314 for the first, 0.372 for the second.

Going from AGUUCACACAGGGAGCUCCAGCACAGUGACUUGGACAGAAGGGCAGAGCAA to AGUUCACACAGGGAGCUCCAGCACAGUGAAGCGGACAGAAGGGCAGAGCAA, the “exon inclusion enrichment index” value rises from 0.168 to 0.646.

Going from AGUUCACACAGGGAGCUCCAGCACAGUGAAGGGGACAGAAGGGCAGAGCAA to AGUUCACACAGGGAGCUCCAGCACAGUGAAGAGGACAGAAGGGCAGAGCAA, the “exon inclusion enrichment index” value rises from 0.0429 to 0.854.

Compared with AGUUCACACAGGGAGCUCCAGCACAGUGAAUAGGACAGAAGGGCAGAGCAA, AGUUCACACAGGGAGCUCCAGCACAGUGAAUGGGACAGAAGGGCAGAGCAA is higher in “exon inclusion enrichment index” value: 0.00816 for the first, 0.0217 for the second.

Going from AGUUCACACAGGGAGCUCCAGCACAGUGAAUCGGACAGAAGGGCAGAGCAA to AGUUCACACAGGGAGCUCCAGCACAGUGAAAUGGACAGCCGGGCAGAGCAA, the “exon inclusion enrichment index” value rises from 0.293 to 0.334.

Going from AGUUCACACAGGGAGCUCCAGCACAGUGAAAUGGACAGCUGGGCAGAGCAA to AGUUCACACAGGGAGCUCCAGCACAGUGAAAUGGACAGCGGGGCAGAGCAA, the “exon inclusion enrichment index” value rises from 0.0879 to 0.142.

Going from AGUUCACACAGGGAGCUCCAGCACAGUGAAAUGGACAGAUCGGCAGAGCAA to AGUUCACACAGGGAGCUCCAGCACAGUGAAAUGGACAGAUUGGCAGAGCAA, the “exon inclusion enrichment index” value falls from 0.451 to 0.0362.

First: AGUUCACACAGGGAGCUCCAGCACAGUGAAAUGGACAGAUAGGCAGAGCAA
Second: AGUUCACACAGGGAGCUCCAGCACAGUGAAAUGGACUGAAGGGCAGAGCAA
The “exon inclusion enrichment index” value of the first is lower: 0.00421 for the first, 0.0984 for the second.

Going from AGUUCACACAGGGAGCUCCAGCACAGUGAAAUGGACGGAAGGGCAGAGCAA to AGUUCACACAGGGAGCUCCAGCACAGUGAAAUGGACCGAAGGGCAGAGCAA, the “exon inclusion enrichment index” value rises from 0.237 to 0.426.

First: AGUUCACACAGGGAGCUCCAGCACAGUGCGAUGGACAGAAGGGCAGAGCAA
Second: AGUUCACACAGGGAGCUCCAGCACAGUGCCAUGGACAGAAGGGCAGAGCAA
The “exon inclusion enrichment index” value of the first is higher: 0.291 for the first, 0.217 for the second.

First: AGUUCACACAGGGAGCUCCAGCACAGUGCUAUGGACAGAAGGGCAGAGCAA
Second: AGUUCACACAGGGAGCUCCAGCACAGUGAAAUGGUGAGAAGGGCAGAGCAA
The “exon inclusion enrichment index” value of the first is higher: 0.0384 for the first, 0.00777 for the second.

Compared with AGUUCACACAGGGAGCUCCAGCACAGUGAAAUGGUUAGAAGGGCAGAGCAA, AGUUCACACAGGGAGCUCCAGCACAGUGAAAUGGUAAGAAGGGCAGAGCAA is higher in “exon inclusion enrichment index” value: 0.00092 for the first, 0.00105 for the second.

Compared with AGUUCACACAGGGAGCUCCAGCACAGUGAAAUGGGGAGAAGGGCAGAGCAA, AGUUCACACAGGGAGCUCCAGCACAGUGAAAUGGGAAGAAGGGCAGAGCAA is higher in “exon inclusion enrichment index” value: 0.00494 for the first, 0.0625 for the second.

Compared with AGUUCACACAGGGAGCUCCAGCACAGUGAAAUGGGUAGAAGGGCAGAGCAA, AGUUCACACAGGGAGCUCCAGCACAGUGAAAUGGACGUAAGGGCAGAGCAA is higher in “exon inclusion enrichment index” value: 0.00147 for the first, 0.0217 for the second.

Going from AGUUCACACAGGGAGCUCCAGCACAGUGAAAUGGACGAAAGGGCAGAGCAA to AGUUCACACAGGGAGCUCCAGCACAGUGAAAUGGACGCAAGGGCAGAGCAA, the “exon inclusion enrichment index” value rises from 0.104 to 0.228.

First: AGUUCACACAGGGAGCUCCAGCACAGUGAAAUGGACAGGUGGGCAGAGCAA
Second: AGUUCACACAGGGAGCUCCAGCACAGUGAAAUGGACAGGGGGGCAGAGCAA
The “exon inclusion enrichment index” value of the first is higher: 0.0129 for the first, 0.0106 for the second.

First: AGUUCACACAGGGAGCUCCAGCACAGUGAAAUGGACAGGCGGGCAGAGCAA
Second: AGUUCACACAGGGAGCUCCAGCACAGUGAACCGGACAGAAGGGCAGAGCAA
The “exon inclusion enrichment index” value of the first is lower: 0.119 for the first, 0.385 for the second.

Compared with AGUUCACACAGGGAGCUCCAGCACAGUGAACGGGACAGAAGGGCAGAGCAA, AGUUCACACAGGGAGCUCCAGCACAGUGAACAGGACAGAAGGGCAGAGCAA is lower in “exon inclusion enrichment index” value: 0.221 for the first, 0.0301 for the second.

First: AGUUCACACAGGGAGCUCCAGCACAGUGAAAUGGACAGUUGGGCAGAGCAA
Second: AGUUCACACAGGGAGCUCCAGCACAGUGAAAUGGACAGUCGGGCAGAGCAA
The “exon inclusion enrichment index” value of the first is lower: 0.036 for the first, 0.195 for the second.

With AGUUCACACAGGGAGCUCCAGCACAGUGAAAUGGACAGUGGGGCAGAGCAA the “exon inclusion enrichment index” value was 0.0214.

— the RNAGym collection of RNA variant scans (doi:10.1101/gr.219683.116)
